Data on 1 substance can be found in publication PMC8377490.

The Km is the concentration of substrate that gives half-maximal velocity. For orientation: kcat means the number of substrate molecules converted per active site and unit of time at saturation. In general, kcat/Km refers to the turnover number divided by the Michaelis constant.

For the series, the system named is C[C@@H]1O[C@@H](O[C@H]2[C@H](O)[C@@H](O)C(O)O[C@@H]2C(=O)O)[C@H](O)[C@H](O)[C@H]1O. The series can be described thus: purified protein. To be noted: 50 mM Hepes-NaOH pH 7.0, 30 °C, 20 nM enzyme.

Regarding “FoRham1 (GA-specific L-rhamnose-α-1,4-D-glucuronate lyase) (Fusarium oxysporum)”, the Km is 2800 ± 200 µM, the kcat is 95.5 s⁻¹ and the catalytic efficiency (kcat/Km) amounted to 34100 M⁻¹ s⁻¹.
